T1: BoNT/B1 (Clostridium botulinum, UniProt P10844 2-1291)
T1 sequence: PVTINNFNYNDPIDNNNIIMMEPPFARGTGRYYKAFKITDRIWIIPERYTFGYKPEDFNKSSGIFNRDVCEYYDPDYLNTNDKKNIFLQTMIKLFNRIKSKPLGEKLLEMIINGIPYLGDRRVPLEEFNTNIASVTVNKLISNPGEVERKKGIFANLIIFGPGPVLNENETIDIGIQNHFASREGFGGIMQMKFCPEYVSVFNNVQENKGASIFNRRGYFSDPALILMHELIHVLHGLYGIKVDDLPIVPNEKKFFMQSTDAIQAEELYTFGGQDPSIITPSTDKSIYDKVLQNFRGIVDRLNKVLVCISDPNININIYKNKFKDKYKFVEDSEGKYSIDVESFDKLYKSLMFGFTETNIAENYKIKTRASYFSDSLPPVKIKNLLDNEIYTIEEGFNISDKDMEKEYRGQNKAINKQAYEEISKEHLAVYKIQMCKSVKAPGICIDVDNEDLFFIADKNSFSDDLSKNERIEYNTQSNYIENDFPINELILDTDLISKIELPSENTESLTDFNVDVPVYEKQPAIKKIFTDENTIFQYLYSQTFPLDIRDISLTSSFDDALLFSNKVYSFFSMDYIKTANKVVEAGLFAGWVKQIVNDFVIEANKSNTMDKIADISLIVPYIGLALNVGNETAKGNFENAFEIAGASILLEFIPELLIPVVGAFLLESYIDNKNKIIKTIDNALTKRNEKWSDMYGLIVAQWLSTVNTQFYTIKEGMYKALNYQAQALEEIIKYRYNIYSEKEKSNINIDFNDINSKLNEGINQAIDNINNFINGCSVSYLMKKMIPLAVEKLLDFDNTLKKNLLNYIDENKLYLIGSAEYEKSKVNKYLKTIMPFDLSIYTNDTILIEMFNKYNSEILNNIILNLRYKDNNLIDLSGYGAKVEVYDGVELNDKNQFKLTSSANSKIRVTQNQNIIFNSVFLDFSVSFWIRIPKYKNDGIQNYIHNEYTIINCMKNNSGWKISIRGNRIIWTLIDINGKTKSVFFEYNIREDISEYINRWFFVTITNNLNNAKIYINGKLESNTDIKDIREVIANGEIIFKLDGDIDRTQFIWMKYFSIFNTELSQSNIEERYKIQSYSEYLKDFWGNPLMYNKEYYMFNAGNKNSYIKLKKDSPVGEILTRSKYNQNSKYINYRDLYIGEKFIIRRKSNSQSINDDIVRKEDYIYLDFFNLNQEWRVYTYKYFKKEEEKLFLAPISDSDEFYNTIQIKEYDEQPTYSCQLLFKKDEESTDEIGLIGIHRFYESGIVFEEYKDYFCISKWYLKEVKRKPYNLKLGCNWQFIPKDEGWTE

T2: BoNT/B light chain (recombinant) (Clostridium botulinum, UniProt P10844 1-441)
T2 sequence: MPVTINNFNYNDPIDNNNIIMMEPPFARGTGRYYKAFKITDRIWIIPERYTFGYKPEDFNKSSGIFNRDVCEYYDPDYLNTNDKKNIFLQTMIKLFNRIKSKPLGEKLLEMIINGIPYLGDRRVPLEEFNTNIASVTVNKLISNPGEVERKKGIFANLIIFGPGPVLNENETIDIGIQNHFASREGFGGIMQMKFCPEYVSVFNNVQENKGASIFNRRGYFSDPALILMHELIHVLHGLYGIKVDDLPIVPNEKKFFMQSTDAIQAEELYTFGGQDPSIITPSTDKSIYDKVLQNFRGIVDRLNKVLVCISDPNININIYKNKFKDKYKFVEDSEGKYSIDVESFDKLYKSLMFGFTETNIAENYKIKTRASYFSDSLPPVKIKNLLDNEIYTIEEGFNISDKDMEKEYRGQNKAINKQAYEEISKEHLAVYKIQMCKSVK

T3: BoNT/F1 (proteolytic BoNT/F) (Clostridium botulinum, UniProt A7GBG3 1-1278)
T3 sequence: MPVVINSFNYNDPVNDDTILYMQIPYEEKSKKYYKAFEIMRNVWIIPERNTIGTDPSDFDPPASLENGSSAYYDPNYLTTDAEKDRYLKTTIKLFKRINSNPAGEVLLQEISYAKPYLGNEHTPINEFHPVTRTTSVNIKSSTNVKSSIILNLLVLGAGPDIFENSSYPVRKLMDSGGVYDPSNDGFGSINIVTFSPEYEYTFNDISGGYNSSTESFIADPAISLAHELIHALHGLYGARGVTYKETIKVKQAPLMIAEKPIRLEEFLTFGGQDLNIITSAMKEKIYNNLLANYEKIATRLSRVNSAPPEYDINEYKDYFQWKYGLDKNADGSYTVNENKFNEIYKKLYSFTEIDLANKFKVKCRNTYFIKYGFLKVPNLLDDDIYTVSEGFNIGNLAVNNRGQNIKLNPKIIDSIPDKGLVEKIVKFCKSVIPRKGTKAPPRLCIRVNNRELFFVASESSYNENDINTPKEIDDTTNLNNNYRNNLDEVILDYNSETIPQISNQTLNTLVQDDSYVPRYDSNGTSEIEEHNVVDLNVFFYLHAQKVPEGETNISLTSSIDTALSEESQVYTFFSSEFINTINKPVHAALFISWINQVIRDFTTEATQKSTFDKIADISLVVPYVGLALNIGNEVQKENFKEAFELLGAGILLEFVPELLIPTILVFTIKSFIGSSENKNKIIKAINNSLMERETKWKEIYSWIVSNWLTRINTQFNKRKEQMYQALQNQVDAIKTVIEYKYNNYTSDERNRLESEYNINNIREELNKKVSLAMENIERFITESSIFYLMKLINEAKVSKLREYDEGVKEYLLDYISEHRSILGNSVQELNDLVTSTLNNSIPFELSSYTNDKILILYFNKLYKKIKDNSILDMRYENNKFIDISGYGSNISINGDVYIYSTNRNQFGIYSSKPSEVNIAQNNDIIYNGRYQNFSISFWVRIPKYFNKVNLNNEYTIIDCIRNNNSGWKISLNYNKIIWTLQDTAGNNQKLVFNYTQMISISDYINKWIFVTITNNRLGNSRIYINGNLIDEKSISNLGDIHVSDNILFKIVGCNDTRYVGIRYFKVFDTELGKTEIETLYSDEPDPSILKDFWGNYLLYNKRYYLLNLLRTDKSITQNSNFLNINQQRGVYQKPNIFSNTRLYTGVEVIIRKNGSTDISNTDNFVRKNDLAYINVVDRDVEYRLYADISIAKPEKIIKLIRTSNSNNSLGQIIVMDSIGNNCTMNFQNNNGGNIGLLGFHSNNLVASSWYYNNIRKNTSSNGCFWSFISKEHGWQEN

B1: 18D10 scFv (scFv)
scFv: QVQLKQSGIEVMKPGASVKLSCKASGYPFTAYWIEWVKQRPGHGLEWIGEFLPGGISTNFNEKFKGKATFSADTSSNSAYIQLNSLTTEDSAIYYCVLTGTGFDYWGQGTSVTVSSVDLKSGGSTSGSGKPGSGEGSSGSARENVLTQSPAIMSASPGEKVTMTCSASSSVSYMHWYQQKSGTSPKRWIYDTSKLASGVPARFSGSGSGTSYSLTISSMEAEDAATYYCQQWSSNPLTFGAGTKLELK
notes: mouse
B2: 19A9 scFv (scFv)
scFv: EVQLQQPGSELARPGASVKLSCKASGYTFTSYPITWVKQTTGQGLEWIGEIYPRSGNTYYNEKFKGKATLTADKSSSTAYMELRSLTSEDSAVYFCARDYYDYAGGGRGYWGQGTTLTVSSVDLKSGGSTSGSGKPGSGEGSSGSARDIVLTQSPAIMSASPGGKITITCSASSSVSYMHWFQQKPGTSPKLWIYSTSNLASGVPARFSGSGSGTSYSLTISRMEAEDAATYYCQQRSSYPYTFGGGTKLEIK
notes: mouse
B3: 19D2 scFv (scFv)
scFv: EVQLQQSGGELARPGSSVKLSCKASGYSFTGYSLTWVKQTPGQGLEWIGEIYPRSGNTYYNENFQGKATLTADESSSTAYMELRSLTSEDSAVYFCARDFYDYDGGGRGYWGQGTTLTVSSVDLKSGGSTSGSGKPGSGEGSSGSARDIVMTQTPAIMSASPGEKVTITCSASSSVSYMHWYQQKPGTSPKLWIYSTSNLASGVPARFSGSGSGTSYSLTISRMEAEDAATYYCQQRSSYPYTFGGGTKLEIK
notes: mouse
B4: 18E5 scFv (scFv)
scFv: EVQLQESGPELVKPGASVKISCKASGYTFTDHNMDWVKQSLGKSLEWIGDINPNNGGAVYNQNFKGKATLTVDKSSSTAYMELRSLTSEDTAVYYCARYGYYGYFDYWGQGTTLTVSSVDLKSGGSTSGSGKPGSGEGSSGSARQIVLTQSPAIMSASPGEKVTMTCRASSSVSSSYLHWYQQKPGSSPKLWIYSTSNLASGVPARFSGSGSGTSYSLTISSVEAEDAATYYCQQYDSSPSTFGAGTKLEIK
notes: mouse
B5: 19B6 scFv (scFv)
scFv: QVQLQQSGAELVKPGASVKISCKASGYTFTDNYINWVKQRPGQGLEWIGWIHPGSGNAKYNEKFRAKATLTVDTSSNTAYMQLSSLTSEDSAVYFCARVGFRVNFDYWGQGTTLTVSSVDLKSGGSTSGSGKPGSGEGSSGSARQIVLTQSPAIMSASPGEKVTMTCSASSSLSYVHWYQQKPGSSPKPWIYATSNLVSGVPARFSGSRSGTSYSLTISSMEAEDAATYYCQQWSSYPPTFGAGTKLEIK
notes: mouse
B6: 6F3 IgG (antibody, V domains shown)
VH: QVQLQQSGPEVVKPGASVKISCKASGYTFADYWIGWTKQGPGHGLEWIGHIYPGGGYINYNEKFKGKATLTADMSSSTAYMQFSSLTSEDSAIYYCARVTMVESGDWYFDVWGTGTTVTVSS
VL: ENVLTQSPAIMSASLGEEITLTCSASSSVSYMHWYQQKSGTSPKLWIYYTSNLASGVPARFSGSGSGTSYSLTISSMEAEDAATYYCQQWSSNPYTFGGGTKLEIK
notes: IgG from scFv V genes
B7: 16B3 scFv (scFv)
scFv: EVQLQQSGPELVKPGASVKITCKASGYTFTDNNMDWVKQSHGKSLEWIGDINPNNGGSIYNQKFKGKASLTLDKSSSTAYMELRSLTSEDTAVYYCARWGYYGSLAYWGQGTLVTVSSVDLKSGGSTSGSGKPGSGEGSSGSARQNVLTQSPAIMSASPGEKVTMTCSASSSVSSRYLHWYQQKSGASPKLWIYGTSNLASGVPARFSGSGSGTSYSLTISSVEAEDAATYYCQQYHSDPLTFGGGTKLEIK
notes: mouse
B8: 6F5 IgG (antibody, V domains shown)
VH: EVQLVQSGGNLVQPGGSLRLSCAATGPIGSHWMTWVRQAPGQGLEWVANINLDGTEKFYVDSVKGRFTVSRDNRKSSVFLQMNNLRVDDTAVYYCARLQWGGYNGWLSPWGQGTLVTVSS
VL: DIEMTQSPPSLSASVGDRVSLTCRASEYIGTSLNWYQQKPGKAPKLLIYAASALHSGVPSRFSGSGSGTDFTLTISGLQPEDFATYYCQQANDLPLTFGGGTKLEIK
B9: 19D22 scFv (scFv)
scFv: QIQLLQSGAELVRPGTSVKMSCKAAGYPFTSYWMGWVKQRPGHGLEWIGDIYPGGPYTNYNEKFKGKATLTADTSSSTAYMQFSSLTSEDSAIYYCALYGQVGSYAMDYWGQGTSVTVSSVDLKSGGSTSGSGKPGSGEGSSGSARQIVLTQSPAIMSASPGEKVTMTCSASSSVSYMYWYQQKPGSSPRLLIYDTSNLASGVPVRFSGSGSGTSYSLTISRMEAEDAATYYCQQWSSYPPITFGAGTKLEIK
notes: mouse
B10: 16D5 scFv (scFv)
scFv: EVKLVESGAELVRPGASVKLSCTPSGFNIKDDYMHWVKQRPEQGLEWIGRIDPANGNTRYAPKFQDKATLTADTSSNTAYLHLTSLTSEDTAVYYCARSYYRAWFDYWGQGTLVTVSSVDLKSGGSTSGSGKPGSGEGSSGSARQIVLTQSPATLSVTPGDSVSLSCRASQSISNNLHWYQQKSHESPRLLIKYASQSISGIPSRFSGSGSGTDFTLSINSVETEDFGMYFCQQSNSWPLTFGAGTRLEIK
notes: mouse
B11: 18A6 scFv (scFv)
scFv: EVQLQQSGPELVKPGASVKISCKASGYTFTDNYINWVKQRPGQGLEWIGWIYPGSGNTKYNEKFKGKATLTVDTSSNTAYMQLTGLASDDSAVYFCARVNFYVSWDYWGQGTSVTVSSVDLKSGGSTSGSGKPGSGEGSSGSAREIVLTQSPAIMSASPGEKVTMTCSASSSISYMHWFQQKPGMSPKRRIFDTSKLASGVPARFSGSGSGTSYSLTISSMEAEDAGTYYCHQRSSYPFTFGGGTKLELK
notes: mouse

Key:
[1] = biological target: T1, BoNT/B1; experiment: yeast scFv FACS
[2] = biological target: T2, BoNT/B light chain (recombinant); experiment: yeast scFv FACS
[3] = biological target: T3, BoNT/F1 (proteolytic BoNT/F); experiment: IgG

| Binder | Kd [1] | Kd [2] | Kd [3] |
| --- | --- | --- | --- |
| B1 | 5.97 nM | 7.53 nM |  |
| B2 | 1.98 nM | 3.16 nM |  |
| B3 | 2.95 nM | 5.69 nM |  |
| B4 | 1.33 nM | 1 nM |  |
| B5 | 19.7 nM | 2.35 nM |  |
| B6 |  |  | 2.39 nM |
| B7 | 1.01 nM | 0.84 nM |  |
| B8 |  |  | 0.66 nM |
| B9 | 7.39 nM | 21.2 nM |  |
| B10 | 7.57 nM | 1.8 nM |  |
| B11 | 14.5 nM | 4.21 nM |  |
